According to patent US5973116:

Target: human placental alkaline phosphatase (hPLAP) (human) (UniProt P05187)
Assay: ELISA plate with bound antigen, washed with copious amounts of 50 mM DEA

Row | Substance | percent washed off with 50 mM DEA [%]
1 | H17-BSRNase | 40
2 | H17-BSRNaseKDEL | 40
3 | H17-Link-BSRNaseKDEL | 40
4 | single-chain H17E2 antibody (scFv) | > 90
